Common to all, as to test: two-hybrid
Experiment [1] deals with Gal4-SRC-1 (Steroid Receptor Coactivator-1) (UniProt Q15788 1-1441).
Experiment [2] has as its target T1, Gal4-RXRα AF-1 (first 135 amino acids of human RXRα) (human, UniProt P19793 1-135).
T1 sequence (looked up): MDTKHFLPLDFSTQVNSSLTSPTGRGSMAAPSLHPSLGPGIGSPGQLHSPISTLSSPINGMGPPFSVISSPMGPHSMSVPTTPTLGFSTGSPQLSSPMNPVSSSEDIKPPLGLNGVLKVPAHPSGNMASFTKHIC

Experiment [3] has as its target T2, Gal4-mouse RXRα ligand binding domain (LBD) (mouse, UniProt P28700 232-467).
T2 sequence (looked up): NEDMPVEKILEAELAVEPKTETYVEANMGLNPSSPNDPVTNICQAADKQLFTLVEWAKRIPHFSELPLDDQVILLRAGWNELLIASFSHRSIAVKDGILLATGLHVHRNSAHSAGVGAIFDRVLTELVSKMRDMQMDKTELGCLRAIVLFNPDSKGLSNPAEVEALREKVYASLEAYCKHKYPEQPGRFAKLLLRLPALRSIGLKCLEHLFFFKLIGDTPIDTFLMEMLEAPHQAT

Results on 3 molecules are retold here after PMC2916698 (Journal of cellular physiology, 2010).

Chain of Gal4-SRC-1 (Steroid Receptor Coactivator-1) (Q15788 whole entry, the tested form may be a part): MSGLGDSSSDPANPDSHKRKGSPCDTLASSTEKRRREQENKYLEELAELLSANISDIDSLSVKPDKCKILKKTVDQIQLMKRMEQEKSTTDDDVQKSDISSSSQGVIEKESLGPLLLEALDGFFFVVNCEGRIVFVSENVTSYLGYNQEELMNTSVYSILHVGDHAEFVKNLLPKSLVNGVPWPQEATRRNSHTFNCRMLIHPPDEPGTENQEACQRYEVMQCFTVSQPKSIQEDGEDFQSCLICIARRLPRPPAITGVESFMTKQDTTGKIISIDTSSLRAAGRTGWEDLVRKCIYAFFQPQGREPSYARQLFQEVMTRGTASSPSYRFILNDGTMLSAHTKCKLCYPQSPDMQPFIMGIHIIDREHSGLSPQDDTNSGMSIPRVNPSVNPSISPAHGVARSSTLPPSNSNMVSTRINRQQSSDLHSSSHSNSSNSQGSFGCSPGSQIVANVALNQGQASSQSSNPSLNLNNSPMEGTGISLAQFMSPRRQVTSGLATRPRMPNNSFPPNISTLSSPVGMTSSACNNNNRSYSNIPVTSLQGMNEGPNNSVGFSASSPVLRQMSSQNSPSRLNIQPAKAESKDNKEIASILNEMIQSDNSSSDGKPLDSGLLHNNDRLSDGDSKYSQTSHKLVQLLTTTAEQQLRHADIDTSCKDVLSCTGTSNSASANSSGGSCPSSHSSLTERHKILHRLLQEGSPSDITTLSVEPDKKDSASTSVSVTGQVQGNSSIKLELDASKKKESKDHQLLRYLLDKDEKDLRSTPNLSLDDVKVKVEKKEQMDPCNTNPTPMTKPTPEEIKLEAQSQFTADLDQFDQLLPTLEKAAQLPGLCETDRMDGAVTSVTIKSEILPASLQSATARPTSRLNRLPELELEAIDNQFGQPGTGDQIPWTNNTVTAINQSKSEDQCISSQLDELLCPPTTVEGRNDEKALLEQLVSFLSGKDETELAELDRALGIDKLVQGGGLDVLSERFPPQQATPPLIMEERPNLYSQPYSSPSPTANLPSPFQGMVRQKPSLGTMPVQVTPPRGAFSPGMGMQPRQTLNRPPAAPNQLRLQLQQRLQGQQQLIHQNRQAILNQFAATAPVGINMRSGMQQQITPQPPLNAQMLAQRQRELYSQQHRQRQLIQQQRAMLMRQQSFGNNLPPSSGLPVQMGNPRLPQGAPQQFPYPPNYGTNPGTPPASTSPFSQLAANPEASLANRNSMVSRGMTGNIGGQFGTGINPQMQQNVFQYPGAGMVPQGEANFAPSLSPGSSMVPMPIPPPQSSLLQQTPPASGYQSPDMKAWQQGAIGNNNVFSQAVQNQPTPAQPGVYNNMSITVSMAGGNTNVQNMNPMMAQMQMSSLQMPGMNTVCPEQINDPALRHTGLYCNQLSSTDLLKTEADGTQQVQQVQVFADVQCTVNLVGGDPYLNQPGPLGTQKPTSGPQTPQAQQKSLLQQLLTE

B1: VP16-mouse RXRα-LBD (domain or fragment, UniProt P28700 232-467, looked up)
chain: T2 sequence (looked up)
For B1, the “fold induction of the two-hybrid signal by 1,25(OH)2D3, RWPE1 cells” value in experiment [1] came out at 2.6 fold.

B2: VP16-SRC-1 (natural protein)
chain: not shown
Turning to B2, the “two-hybrid signal above the empty GAL4 vector control, RWPE1 cells” value in experiment [2] was found to be 8.2 fold.

B3: VP16-rat VDR-LBD (domain or fragment, UniProt P13053 127-423, looked up)
chain: EQQHIIAILLDAHHKTYDPTYADFRDFRPPVRMDGSTGSYSPRPTLSFSGNSSSSSSDLYTTSLDMMEPSGFSNLDLNGEDSDDPSVTLDLSPLSMLPHLADLVSYSIQKVIGFAKMIPGFRDLTSDDQIVLLKSSAIEVIMLRSNQSFTMDDMSWDCGSQDYKYDVTDVSKAGHTLELIEPLIKFQVGLKKLNLHEEEHVLLMAICIVSPDRPGVQDAKLVEAIQDRLSNTLQTYIRCRHPPPGSHQLYAKMIQKLADLRSLNEEHSKQYRSLSFQPENSMKLTPLVLEVFGNEIS
B3: in experiment [3], the “fold induction of the two-hybrid signal by 1,25(OH)2D3, RWPE1 cells” value was 111 fold and the “fold induction of the two-hybrid signal by 1,25(OH)2D3, RWPE2 cells” value stood at 178 fold. The “fold induction of the two-hybrid signal by 1,25(OH)2D3, RWPE2 cells” value in experiment [1] was determined as 10.4 fold.
